Among the data in paper PMC10393194 are stoichiometry N values, retold here.

The test deals with THO complex (endogenous, purified via Sub2 and Hpr1-TS) (S. cerevisiae | S. cerevisiae (endogenous in yeast)) (UniProt P17629). The test can be described thus: cryo-EM structure; single-particle cryo-EM of the benzonase-treated native eluate on 2-nm carbon-supported grids; Glacios 200 kV; heterogeneous and nonuniform refinement without imposed symmetry.

As usually defined, the stoichiometry N is a count of units in the complex or per binding partner. On to “THO complex (endogenous, purified via Sub2 and Hpr1-TS) (from UniProt P17629 1-752; P53552 1-1597)”, for which the stoichiometry N was determined as 2.
